Our source for the protein production values is a protein production outcome set (Wang et al. 2014).

This series in a line: label from the status in PepcDB records.
Turning to “MSDSSPTINFINFNQTGTCISLGTSKGFKIFNCEPFGKFYSEDSGGYAIVEMLFSTSLLALVGIGDQPALSPRRLRIINTKKHSIICEVTFPTSILSVKMNKSRLVVLLQEQIYIYDINTMRLLHTIETNPNPRGLMAMSPSVANSYLVYPSPPKVINSEIKAHATTNNITLSVGGNTETSFKRDQQDAGHSDISDLDQYSSFTKRDDADPTSSNGGNSSIIKNGDVIVFNLETLQPTMVIEAHKGEIAAMAISFDGTLMATASDKGTIIRVFDIETGDKIYQFRRGTYATRIYSISFSEDSQYLAVTGSSKTVHIFKLGHSMSNNKLDSDDSNMEEAAADDSSLDTTSIDALSDEENPTRLAREPYVDASRKTMGRMIRYSSQKLSRRAARTLGQIFPIKVTSLLESSRHFASLKLPVETNSHVMTISSIGSPIDIDTSEYPELFETGNSASTESYHEPVMKMVPIRVVSSDGYLYNFVMDPERGGDCLILSQYSILMD”, the protein production result was “failed”.

Regarding “MSDVPHLRFPEFSGEWEEHTLSEYLEFKNGLNPDAKRIGSGLPFISVMDILSEGVINYDNIRGKVNATEKEIECFGVKDGDLLFQRSSETLEDVGRANVYMDNRTAIYGGFVIRGRKIGNYDPLFFKYLLATPLARKRTCRMGAGAQHFNIGQEGLSKISLYFPSIEEQRKIAEFLSLIDERIATQNKIIEDLKKLKSAISLNVLHSDKWEQFKIKDIAQIGRGRVISSIEIGQQKSPTYPVYSSQTSNDGIMGYLDDYMFEGEYISWTTDGANAGTVFYRNGKFNCTNVCGLLKLRKEFDTHFVSLVLAEATKKYVSINLANPKLMNNTMGNIQIRLPKLEEQKRISIVFRVLQRLWTVHNSLLTEYTKQEQYLLSQMFILEHHHHHH”, the protein production entry was “failed”.

Turning to “MSDWTDGYVAEIDYTHGFYRELTPAHLRFCLLSRGLRAPEEDAGVSYCELGFGQGVTLNIVAATHPLASVWGTDFNPSHAAAARQLSLDGGTANTAFGDDSFEEFLAREDLPTFDFIVLHGIYSWISAENRAVIGRFLRRRLKVGGVVYISYNTLPGWAAIMPLRALMIDHAKAERAGMTERVDKALAFARTLAEGKAGYFTANPAVAPRLEKMATMSRNYLAHEYFNRDWTPLYHADVVRELTAAKLSFAASAHVTDLIDVVALSAPGREMLAAVNDPLFRETLRDYIVNQQFRRDIFTRGALRLTPLEQIEGLRAQRLALIVPRATIPEKATFPIGTTDLKPEIYGPFFDRLDKGPITLADLAAAEPALAPLPLATLHQAALVAISQGWVAPCPEAAGEGARRKATKRFNAAVLERARRSADLTVLASPVLGGGLGVDRIQQLFLLARAEKHPDPASFVWGILSSQGQRLVKEGKPLEDVDQNMAELRLRAQTFTDSFLPLYDRLGIV”, the protein production result is “failed”.

On to “MSEAIVTIVVVPRERFSCTQASLESIYEHTKIPFKLIYVDGNSPTKVRKYLQKQAQEKNFQLIRTDYYLSPNHARNIGLSHVDTKYLVFLDNDVIVSPGWLQALVNCAETTGATVVGPLMCEKEPIHERIHFAGGESHIVIDVKGRRHLREKMYKQGHQVSELRSQLQQTETELAEFHCTLIRREIFEQIGYLDEEMLNTKEHLDFCMNVIQAGGKVYFEPDSLVTYVPGPPLEWSDLHFYMLRWSDAWTLASLQRIRAKWNLSEDGYFQTKYKKLGVRRVATIIKPFVRQVSFGNENKPLKRFLKNLDRKLNRFLTDRYTEMLPQRKLELPIIKKEISSVKEFTQV”, for which the protein production result is “failed”.

Take “MSEDELYELLKTKYGFDEFRPGQLAVIQKLLAGQDVLAVLPTGTGKSLIYQLVGTALPGLVVVVSPLISLMQDQVARLNYQGEKQVAALTSQLDYGARQYLLNHLGQLKFLFISPEMLGQDIIQTALMQVQLALLVIDEAHCISTWGPDFRPDYRRLGQIRQRLQAPTTLMLTATATQRVRQDILTQLTVPDAQQILYSVNRPNIYLAVEQVNDEASKRATLQHLVTSARGPVIVYFTSKRQTDLIAEWLRTTTTLRVAAYHAGLATDDRFKIQQQFMAGQLDVICATSAFGMGINKADIRLVIHYHLPTTLADYVQEIGRAGRDGQQAMAIMLYAPGDENLVRNLNELTAATPNEIQQDYSRYQAQQPPTDDRSKVLQSYWLQGTPPTTVATIFADRQVAKERELRTLMSYVQTTTCHRTVMLTYFGEPAVTHTDQCCQLAAEPLPLAALGLMATHDEPTATIMSWDQHLAQLFLPNS”: the protein production entry was “failed”.

For the sequence “MSEDLMDLSPEEGIERFLRHREPSVRESTMRNAKTRLRFFNEWCEERDIENLNNLTGRDLADFVAWRRGDIAALTLQKQLSTIREALRYWADIEGVDDGLAEKVHAPELPDGAESREVHLSADRAHQILDFLHDYRYASRDHVVFLILWKTAMRRSALRSLDVDDLRPDDYALVLEHRIDEGTKLKNGEDGERWVYLGPSDYQVVDDYLDNPDRYERTDDYGRKPLITSQHGRPAGDTIYKWVNKLTQPCVLNGCPHDADPSDPSTCEALGSRAAHSKCPSSRSPHGLRRGSITYHLNSDVSPEIVSERCDVSLEVLYEHYDVRTNQEKMAVRKKQLERI”, the protein production entry is listed as “failed”.

As for “MSEDNFDDEFDGSLPSGPRHPMARRFRGYLPVVVDVETGGFNSATDALLEIAATTVGMDEKGFLFPEHTYFFRIEPFEGANIEPAALEFTGIKLDHPLRMAVQEEAALTEIFRGIRKALKANGCKRAILVGHNSSFDLGFLNAAVARTGIKRNPFHPFSSFDTATLAGLAYGQTVLAKACQAAGMEFDNREAHSARYDTEKTAELFCGIVNRWKEMGGWMDDDD”, the protein production entry is listed as “not failed”.

On to “MSEDRTGHQGISGPATRAIHAGYRPDPATGAVNVPIYASSTFAQDGVGGLRGGFEYARTGNPTRAALEASLAAVEEGAFARAFSSGMAATDCALRAMLRPGDHVVIPDDAYGGTFRLIDKVFTRWDVQYTPVRLADLDAVGAAITPRTRLIWVETPTNPLLSIADITAIAELGTDRSAKVLVDNTFASPALQQPLRLGADVVLHSTTKYIGGHSDVVGGALVTNDEELDEEFAFLQNGAGAVPGPFDAYLTMRGLKTLVLRMQRHSENACAVAEFLADHPSVSSVLYPGLPSHPGHEIAARQMRGFGGMVSVRMRAGRRAAQDLCAKTRVFILAESLGGVESLIEHPSAMTHASTAGSQLEVPDDLVRLSVGIEDIADLLGDLEQALG”, for which the protein production result is reported as “not failed”.

“MSEFEGWIKWLEPVFLLWKPEDPGYERPAYRDWTKEEDEPKYSPEKELALLDKQILASDGFDIDFTHFRCVFNYHLAYLDSHEFVDEPETTRDLLERLSRKALDDYNQESVVKANFHFCCAIMFLITFEVVDPYDNLIKLFQTRVRHAEDIVTEYVFCRPKPNQGVECIGVKNNDGKDVQTNVKEQEIPCMYGWFLRVITITFTLQIGVGASICHKE”: the protein production entry is listed as “failed”.

As for “MSEFIMNNLEQTARRWLEERGVTVEKIAELVYYLQSKYHPDLTMEECIENVNRVISKREVQNAILTGIQLDKLAEDGRLDEPLQSIIRRDEGLYGVDEILALSIVNVYGSIGFTNYGYIDKQKPGILQYLNDKSTGKCNTFLDDIVGAIAAAASSRLAHRAANAE”, the protein production entry is “not failed”.

With “MSEFMQRFADLRDRKAYAEIVDALPYVKLMGTSMAEDEQGELRFELPFLQRNVGNTTLPALHGGLIGGFMESAAMIHLMWNRESLEAPKIVDFSLDYLRPGRPQTLFAQCEITKQGKRVAHVLIEAWQDDRSKPVAVARAHFLLTNLEHHHHHH”, the protein production entry is listed as “not failed”.

Consider “MSEFRLTQISDTHLGRRFPGLIANFHRVCEHIDADRPDLVINTGDVSFDGPTSRDDVVFAKGLHDALPVTCRYLPGNHDIGDNPTAIGPAPKPPVSEAYRQQFRDIIGEDHWSFEAAGWCFIGLNTLVMNSGLAFEAAQFDWLTQEIARTNGRPVALFLHKPVFLNLPDDPETPETSIRYVPQPARARLIEMFARVDLRLIASGHVHQRRDFTFRHTRHVWAPSVGFKINDQRQDRIAIKETGLVEYRFRGDSLEVRHLRAAGQIDIDIEEVLLQMGGEH”, for which the protein production result is recorded as “failed”.
